Assays:
[1] = target: T1, Atto643-labeled his6-β1 integrin cytoplasmic tail peptide (UniProt P05556 752-798, Atto643 label (position not given)); assay: FRAP of the tethered partner on supported lipid bilayers (slowdown of diffusion); his6-β1 tails tethered to DGS-NTA-Ni on 5% PIP3 supported lipid bilayer; 1 μM kindlin or 1 μM talin, 30-min incubation; HEPES buffer pH 7.4, 150 mM KCl, 2.5 μM ZnCl2; t1/2_fast against β1 tails alone; details: both partners purified
T1 construct: integrin β1 cytoplasmic tail; Tethered by its his6 tag to DGS-NTA-Ni lipids of the supported lipid bilayer; also called β1 tails; his6-tagged integrin β1 tails; source: synthetic peptide (synthesized and purified by the MPIB Core Facility)
T1 peptide (looked up): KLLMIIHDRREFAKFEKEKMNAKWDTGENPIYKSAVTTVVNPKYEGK

[2] = target: T1, Atto643-labeled his6-β1 integrin …; assay: FRAP of the tethered partner on supported lipid bilayers (slowdown of diffusion); his6-β1 tails tethered to DGS-NTA-Ni on 5% PIP2 supported lipid bilayer; 1 μM kindlin or 1 μM talin, 30-min incubation; HEPES buffer pH 7.4, 150 mM KCl, 2.5 μM ZnCl2; t1/2_fast against β1 tails alone; details: both partners purified

- fold slowdown of β1 tail diffusion against β1 tails alone [1]: 3.3 times
- fold slowdown of β1 tail diffusion against β1 tails alone [2]: 2.6 times
B1: Kindlin-2 (natural protein, UniProt Q96AC1 1-680, looked up)
chain: MALDGIRMPDGCYADGTWELSVHVTDLNRDVTLRVTGEVHIGGVMLKLVEKLDVKKDWSDHALWWEKKRTWLLKTHWTLDKYGIQADAKLQFTPQHKLLRLQLPNMKYVKVKVNFSDRVFKAVSDICKTFNIRHPEELSLLKKPRDPTKKKKKKLDDQSEDEALELEGPLITPGSGSIYSSPGLYSKTMTPTYDAHDGSPLSPTSAWFGDSALSEGNPGILAVSQPITSPEILAKMFKPQALLDKAKINQGWLDSSRSLMEQDVKENEALLLRFKYYSFFDLNPKYDAIRINQLYEQAKWAILLEEIECTEEEMMMFAALQYHINKLSIMTSENHLNNSDKEVDEVDAALSDLEITLEGGKTSTILGDITSIPELADYIKVFKPKKLTLKGYKQYWCTFKDTSISCYKSKEESSGTPAHQMNLRGCEVTPDVNISGQKFNIKLLIPVAEGMNEIWLRCDNEKQYAHWMAACRLASKGKTMADSSYNLEVQNILSFLKMQHLNPDPQLIPEQITTDITPECLVSPRYLKKYKNKQITARILEAHQNVAQMSLIEAKMRFIQAWQSLPEFGITHFIARFQGGKKEELIGIAYNRLIRMDASTGDAIKTWRFSNMKQWNVNWEIKMVTVEFADEVRLSFICTEVDCKVVHEFIGGYIFLSTRAKDQNESLDEEMFYKLTSGWV
notes: Kindlin-2; the species may be mouse there; source: E. coli (DE3) Rosetta 2, purified (Ni-NTA IMAC, SenP2 digest, size-exclusion chromatography); not shown: His-SUMO, N-terminal, cleaved

Source: article PMC13507320, “Synergistic effect of PIP2 and PIP3 on membrane-induced phase separation of integrin complexes” (Biophysical Journal, 2025)
